Results taken from patent publication US20200239586A1 (LA TROBE UNIVERSITY, published 2020).

Assays:
[1] = biological target: phage expressed hFn14 mutant S54A (human, UniProt Q9NP84 28-77); test: phage ELISA, mAb coated (Method 2)
Procedure: (§1) The wells of Maxisorp immunoplates (Nunc) were coated overnight at 4° C. with the target monoclonal antibodies or recombinant Tweak-Fc at a concentration of 1.5 μg/ml in PBS. mAb 5G8 was used as a negative control for ELISA plates coated with tested antibodies. […] 10-fold serial dilutions of phage were made using PBS solution and phage dilutions were added to the coated, blocked ELISA plates for 1 hour, shaking at room temperature. Phage was subsequently removed from the wells and the ELISA plates were washed three times with PBS/0.05% Tween 20.
Method A: HRP-conjugated anti-M13-phage antibody (GE Healthcare) at a 1/5000 dilution in PBS was then added to the wells of the ELISA plates for 1 hour, shaking at room temperature. The antibody solution was then removed from the wells and the ELISA plates were washed four times with PBS/0.05% Tween 20. Method B: Biotin-conjugated anti-M13-phage antibody (GE Healthcare) diluted in PBS was then added to the wells of the ELISA plates for 1 hour shaking at room temperature. The antibody solution was then removed from the wells and the ELISA plates were washed three times with PBS/0.05% Tween 20. HRP-conjugated Streptavidin diluted in PBS was then added to the wells of the ELISA plates for 1 hour, shaking at room temperature. […] Optical density at 450 nm was quantified using a Spectramax absorbance spectrophotometer.

[2] = biological target: T1, synthetic peptide hFn14 sub-domain 2 (human, biotin on the added C-terminal lysine; disulfide bonds as in the solution structure of He et al. 2009); test: ELISA, synthetic biotin peptide on neutravidin plate; antibody concentration not given
T1 construct: also called sub-domain 2 peptide
T1 peptide: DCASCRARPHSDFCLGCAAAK
Excerpt: FIG. 21B is a graphical representation showing reactivity of anti-Fn14 mAbs CRCBT-06-001, CRCBT-06-002, CRCBT-06-003, CRCBT-06-004, CRCBT-06-005, CRCBT-06-006, CRCBT-06-007 and ITEM-1 with a synthetic peptide representing sub-domain 2 of Fn14. Plates were coated with sub-domain 2 peptide and various dilutions of antibody were allowed to bind, bound antibody was detected with anti-mouse HRP and TMB substrate. The average of duplicate readings are plotted, error bars represent standard deviations. The ELISA was repeated to ensure consistent results. The vertical line at 5 ng/ml within the linear part of the curves is the point at which a comparison of the reactivity of each mAb was analyzed.
The ELISA was performed essentially according to the manufacturer's recommended protocol (Pierce). Briefly, peptide was coated onto wells (in duplicate) at 1-10 μg/ml for 2 hours at room temperature. Wells were washed in PBS/0.05% Tween 20/0.1% BSA 3 times and dilutions of each antibody were added in wash buffer for 1 hour with gentle agitation. After another three washes anti-mouse HRP-conjugated to horse radish peroxidase (HRP; Chemicon) was added at 1/1000 dilution for 1 hour shaking. […] Optical density at 450 nm was quantified using a Spectromax absorbance spectrophotometer.

[3] = biological target: phage expressed hFn14 mutant H60A (human, UniProt Q9NP84 28-77); test: phage ELISA (Method 2): antibody coated on the plate, 10-fold dilutions of phage displaying hFn14 H60A; biotin anti-M13 antibody, streptavidin-HRP, TMB, OD 450 nm; x axis = dilution of phage
Sequence of phage expressed hFn14 mutant H60A (Q9NP84 28-77 H60A): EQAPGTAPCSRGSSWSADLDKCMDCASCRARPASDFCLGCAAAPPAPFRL
Procedure: ELISAs showing the reactivity of mutant H60A and H60K hFn14 phage constructs with the anti-Fn14 monoclonal antibodies CRCBT-06-001, CRCBT-06-002, CRCBT-06-004 compared to ITEM-1 and ITEM-4. ITEM-2 was assessed on H60K. Binding was detected using Biotin-conjugated anti-M13-phage monoclonal antibody followed by HRP-conjugated Streptavidin and TMB substrate. Optical density at 450 nm was quantified using a Spectramax spectrophotometer. Error bars for each dilution represent the standard deviation of duplicate assays. X axis=dilution of phage. Methods according to Epitope mapping using phage expressed Fn14—Method 2.
as §1
Method A: HRP-conjugated anti-M13-phage antibody (GE Healthcare) at a 1/5000 dilution in PBS was then added to the wells of the ELISA plates for 1 hour, shaking at room temperature. […]

Measured: binding result

Sequence of phage expressed hFn14 mutant S54A (Q9NP84 28-77 S54A): as the sequence (Q9NP84 28-77 H60A) above, with S27A, A33H counted along it

B1: CRCBT-06-001 (antibody, IgG2b, V domains shown)
VH: QVQLQQSGGGLVQPGGSMKLSCIASGFTFSSYWMSWVRQSPEKGLEWVAEIRSKSDNYATHYAESVKGKFTISRDDSKSRFFLQMNNLRAEDTGIYYCSSTYADYFHYWGQGTDLTVSS
VL: DIVMTQTPASLAVSLGQRATISCRASQSVSTSTYSYMHWYQQKPGQPPKLLIKYASSLESGVPARFSGSGSGTDFTLNIHPVEEDDTATYYCQHSWEIPYTFGGGTKLEIKR
binds: all assays above

B2: CRCBT-06-002 (antibody, IgG1, V domains shown)
VH: EVKLQQSGGGLVQPGGSMKLSCVASGFTFSYYWMNWVRQSPEQGLEWIAEIRLQSNDYPTHYAESVKGRFTISRDDSKNSVYLQMNNLRPEDTGIYYCACRYADYFDHWGQGTTLTVSS
VL: DTVLTQSPASLVVSLGQRATISCRASQSVSTSDYSYIHWYQQKPGQPPKFLIKYASNRDSGVPARFSGSGSGTDFTLNIHPVEEDDTAIYYCQHSWEIPPTFGAGTKLELQR
binds: all assays above
